For this assay, the target named is σ2 subunit of the AP2 core (σ2-adaptin 1-143) (mouse, UniProt P62743 1-142). Description: crystal structure.

Where no end group is shown, it is not given here. [ ]: non-standard residue; d: D form. pS = N[C@@H](COP(=O)(O)O)C(=O)O

σ2 subunit of the AP2 core (σ2-adaptin 1-143), sequence (P62743 whole entry, looked up, tested part not stated): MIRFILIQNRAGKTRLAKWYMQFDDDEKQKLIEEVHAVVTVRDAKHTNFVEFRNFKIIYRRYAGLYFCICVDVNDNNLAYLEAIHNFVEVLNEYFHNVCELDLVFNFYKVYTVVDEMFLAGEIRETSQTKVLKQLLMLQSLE

Turning to RM[pS]QIKRLLSE [CD4 dileucine peptide RM(phosphoS)QIKRLLSE (Q peptide), as co-crystallised], the binding result is reported as “binds”.

These data come from article PMC4340503 (Nature, 2008).
